The data set in a line: yeast display, Sf9 membrane polyspecificity reagent, FACS + sequencing; frameworks hold sequencing errors. In short, it runs like this:
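Galactose induction of a Saccharomyces cerevisiae BJ5465 synthetic nanobody display library ran 36–48 hours. The cells were then stained for 1 hour at 4 °C with 10% biotinylated, detergent-solubilized Sf9 membrane reagent, pulled down on streptavidin microbeads and FACS-sorted into low and high (top ~1%) gates on expression and reagent-binding fluorescence. Labels for polyreactivity follow the gate of origin.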
Regarding “QVQLVESGGGLVQAGGSLRLSCSASRSTFYGNAMGWYRQAPGKERELVAAISSGDITYYADSVKGRFTISRDNAKNTVYLQMNSLKPEDTAVYYCATDYGYSWYDYWGQGTQVTVSS”, the “polyreactivity (PSR sort gate)” value is listed as “low polyreactivity”.

For “QVQLVESGGGLVQAGGSLRLSCSAYGSIFYGYAMGWYRQAPGKERELVAAITWSGGSTYYADSVKGRFTISRDIAKNTVYLQMNSLKPEDTAVYYCNALWVWYRGSSVRWVGGYDYWGQGTQVTVSS”, the “polyreactivity (PSR sort gate)” value is recorded as “high polyreactivity”.

Take “QVQLVESGGGLVQAGGSLRLSCSDSGRTFGGNAMGRYRQAPGKERELVAAISRSGGTTYYADSVKGRFTISRDNAKNTVYLQMNSLKPEDTAVYYCNTRRYGAMYYWGQGTQVTVSS”: the “polyreactivity (PSR sort gate)” value was “high polyreactivity”.

Regarding “QVQLVESGGGLVQAGGSLRLSCTASGSIFTRNTMGSYRQAPGKERELVAAISRRGGSTDYADSVKGRFTISRDNAKNTVYLQMNSLKPEDTAVYYCAADLGYEYDYWGQGTQVTVSS”, the “polyreactivity (PSR sort gate)” value is recorded as “high polyreactivity”.

Consider “QVQLVESGGGLVQAGGSLRLSCVASARTFFRYAMGWYRQAPGKERELVADITRGGSTYYADSVKGRFTISRDNAKNTVYLQMNSLKPEDTAVYYCNADGRVQRKYDYWGQGTQVTVSS”, for which the “polyreactivity (PSR sort gate)” value is listed as “high polyreactivity”.

For “QVQLVESGGGLVQAGGSLRLSCVASGGIFFHYAMRWYRHARGKERELVAAISISGGSTYSADSVKGRFTISRDNAKNTVYLQMNSLKPEDTAVYYCAARYWVRRKDYWGQGTQVTVSS”, the “polyreactivity (PSR sort gate)” value was “low polyreactivity”.

As to “QVQLVESGGGLVQAGGSLRLSCVASGRIIPCNAMGWYRQAPGKERELVAAISYGGGSTYYADSVKGRFTISRDNAKNTVYLQMNSLKPADTAVYYCAAASSGEYGYWGQGTQVTVSS”, the “polyreactivity (PSR sort gate)” value was “low polyreactivity”.

Take “QVQLVESGGGLVQAGGSLRLSCVPPDLPSTLNVMGWYRQAPGKERELVAAISQRGGSTYYADSVKGRFTISRDNAKNTVYLEMNSLKPEDTAVYYCAAGPGDSGDDYWGQGTQVTVSS”: the “polyreactivity (PSR sort gate)” value was “low polyreactivity”.

Take “QVQLVESGGGLVQAGGSLRLSCYASGGTFRWYAMGWSRQAPGKERELVAAISYSGGPTYADSVKGRFTISRDNAKNTVYLQMNSLKPEDTAVYYCNAVRYITHYDYWGQGTQVTVSS”: the “polyreactivity (PSR sort gate)” value was “high polyreactivity”.

“QVQLVESGGGLVQAGGSLRLSCYASGRTFAGYVMGWYRQAHGKERELVAAINASGGSTYYADSVKGRFTISRDNAKNTVYLQMNSLKPEDTAVYYCAAARLGSDITRRYYYWGQGTQVTVSS”: the “polyreactivity (PSR sort gate)” value is “high polyreactivity”.

Consider “QVQLVESGGGLVQAGGSLRLSFAASGFTFRYYVMGWYRQAPGKERELVASISRGGSTTNYADSVKGRFTISRDNAKNTVFLQMNSLKPEDTAVYDCNVVITPGYSYDISRGEGYWGQGTQVTVSS”, for which the “polyreactivity (PSR sort gate)” value is recorded as “high polyreactivity”.

For the sequence “QVQLVESGGGLVQAGGSLRLSFAASGHTFRYYAMGWYRQAPGKERELVAAITGGGGSTYYADSVKGRFTISRDNAKNTVYFQMNSLKPEDTAVYYCATGGVSGMVGGDYWGQGTQVTVSS”, the “polyreactivity (PSR sort gate)” value is given as “low polyreactivity”.

With “QVQLVESGGGLVQAGGSLRLSFAASGITFSSYAMGLYRQAPGKERELVARISTDADTYYADSVKGRFTISRDNAKNTVYLQMNSLKPEDTAVYYCAAEDYWDFDYWGQGTQVTVSS”, the “polyreactivity (PSR sort gate)” value is listed as “low polyreactivity”.

In the case of “QVQLVESGGGLVQAGGSLRLSFAASGLNFRVYAMGWYTQAPGTERELVAAISRGGSTYYADSVKGRFTISRDNAKNTVYLQMNSLKPEDTAVYYCAAVFVHRGYYYWGQGTQVTVSS”, the “polyreactivity (PSR sort gate)” value is listed as “high polyreactivity”.

As to “QVQLVESGGGLVQAGGSLRLSFAASGNTFVSNAMGWYRQAPGKERELVAAISGRGGRTYYADSVKGRFTISRDIAKDTVYLQMNSLKPEDTAVYYCDADQYKDFDYWGQGTLVTVSS”, the “polyreactivity (PSR sort gate)” value is reported as “low polyreactivity”.

Regarding “QVQLVESGGGLVQAGGSLRLSFAASGRIFGENAMGWYRQAPGKEREFVAVISISDASTYYADSVKGRFTLSRDNAKNTVYLQMNSLKPEDTAVYYWAADLTDFLYVASDYWGQGTQVTVSS”, the “polyreactivity (PSR sort gate)” value is given as “low polyreactivity”.

Turning to “QVQLVESGGGLVQAGGSLRLSFAASGRIFGGYGMGWYRQAPGKERELVAAIDADAGSTYYADSVKGRFTISRDNAKNTVYLQLNSLKPEDTAVYYCAPVDQVAVDKHDYWGQGTQVTVSS”, the “polyreactivity (PSR sort gate)” value was “low polyreactivity”.

(Values after the nanobody polyreactivity screen of Harvey et al. (2022).)
